Source: the RNAGym collection of RNA variant scans (doi:10.1073/pnas.2313332121)
Variants at the floor of the assay were thinned out.

B1: TPR 5TU (parent)
chain: GGAUCUUCUCGAUCUAACAAAAAAGACAAAUCUGCCACAAAGCUUGAGAGCAUCUUCGGAUGCAGAGGCGGCAGCCUUCGGUGGCGCGAUAGCGCCAACGUUCUCAACUAUGACACGCAAAACGCGUGCUCCGUUGAAUGGAGUUUAUCAUG

Variants of: B1
Assay: polymerase ribozyme fitness, log enrichment relative to wild type (log ratio); higher = more active; in vitro selection for triplet polymerase activity
Procedure, shortened: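 One round of in vitro selection, in triplicate, was applied to PCR-built, transcribed mutant libraries of each subunit of a heterodimeric triplet polymerase ribozyme. The steps were annealing with a biotinylated primer, partner subunit and triplets, incubation frozen at −7 °C, gel excision of extended constructs, streptavidin-bead capture and RT-PCR. Fitness is the logarithm, base 2, of genotype enrichment over wild-type enrichment from inverse-variance-weighted replicate averages of Illumina-sequenced inputs and outputs, keeping genotypes with ≥10 input reads and ≥1 read per output.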

| Variant | polymerase ribozyme fitness (log ratio) |
| --- | --- |
| GGAUCUUCUCGAUCUAACAAAAAAGACAAAUCUGCCACAAAGAAUGAGAGCAUCUUCGGAUGCAGAGGCGGCAGCCUUCGGUGGCGCGAUAGCGCCAACGUUCUCAACUAUGACACGUAAAACGCGUGCUCCGUUGAAUGGAGUUUAUCAUG [C43A U44A C118U] | -4.17 |
| GGAUCUUCUCGAUCUAACAAAAAAGACAAAUCUGCCACAAAGGUUGAGAGCAUCUUCGGAUGCAGAGGCGGCAGCCUUCGGUGGCUCGAUAGCGCCAACGUUCUCAACUAUGACACGCAAAACGCGUGCUCCGUUGAACGGAGUUUAUCAUG [C43G G86U U139C] | -4.11 |
| GGAUCUUCUCGAUCUAACAAAAAAGACAAAUCUGCCACAAAGAUUGAGAGCGUCUUCGGAUGCAGAGGUGGCAGCCUUCGGUGGCGCGAUUGCGCUAACGUUCUCUACUAUGACACGCAAAACGCGUGCUCCGUUGAAUGGAGUUUAUCAUG [C43A A52G C69U A91U C96U A106U] | ≤ -4.2 |
| GGAUCUUCUCGAUCUAACAAAAAAGACAAAUCUGCCACAAAGAUUGAGAGCAGCUGCGGAUGCAGAGGCGGCAGCCUUCGGUGGCGCGAUAGCGCCUACGUUCUCAACUAUGACACGCAAAACGCGUGCUCCGUUGGAUGGAGUUUAUCAUG [C43A U53G U56G A97U A137G] | ≤ -4.2 |
| GGAUCUUCUCGAUCUAACAAAAAAGACAAAUCUGCCACAAAGAGUGAGAGCAUCUUCGGAUGCCGAGGCGGCAGCCUUCGGUGGCGCGAUAGCGCCAACGUUCUCAACUAUGACACGGAAAACGCGUGCUGCGUUGGAUGGAGUUUAUCAUU [C43A U44G A64C C118G C131G A137G G152U] | ≤ -4.2 |
| GGAUCUUCUCGAUCUAACAAAAAAGACAAAUCUGCCACAAAGGUUGAGAGCAUCUUCGGAUGCAGAGGAGGCAGCCUUCGGUGGCGCGAUAGCGCCAACGUUCUCAACUAUGACACGCAAAACGCGUGCUCCGUUGAAUGGAGUUUAUCAUG [C43G C69A] | ≤ -4.2 |
| GGAUCUUCUCGAUCUAACAAAAAAGACAAAUCUGCCACAAAGAUUGAGAACAUCUUCGGAUGCAGAGGCGGUAGCCUUCGGUGUCGCGAAAGCGCCAACGUUAUCAACUAUGACACGCAAAACGCGUGCUCCGUUGAAUGUAGUUUAUCAUG [C43A G50A C72U G84U U90A C103A G141U] | ≤ -4.2 |
| GGAUCUUCUCGAUCUAACAAAAAAGACAAAUCUGCCACAAAGGUUGAGAGCAUCUUCGGAUGCAGAGGCGGCAGCCUUCGGUCGCGCGAUAGCGCCAACGUUCUCAACUAUGACACGCAAAACGCGUGCUCCGUUGAAUGGAGUUUAUCAUG [C43G G83C] | ≤ -4.2 |
| GGAUCUUCUCGAUCUAACAAAAAAGACAAAUCUGCCACAAAGAUGGAGAGCAUCUUCGGAUGCAGAGGCGGCAGCCUUCGGUGGCGCGAAAGCGCCAACGUGCUCAACUAUGACACGCAAAACGCGUGCUCCGUUGAAUAGAGUUUCUCAUG [C43A U45G U90A U102G G140A A147C] | ≤ -4.2 |
| GGAUCUUCUCGAUCUAACAAAAAAGACAAAUCUGCCACAAAGAUUGAGAGCAUCUUCCGAUGCAGAGGCGGCAGCAUUCGGUGGCGCGAUAGCGCCAACGUCCUCAACUAUGACACGCAAAACGCGUGCUCCGUUGAAUGAAGUUUAUCAUG [C43A G58C C76A U102C G141A] | ≤ -4.2 |
| GGAUCUUCUCGAUCUAACAAAAAAGACAAAUCUGCCACAAAGAUUGAGAGCAUCUUCCGAUGCAGAGGCGGCAGCCUUCGCUGGCGCGAUAGCGUAAACGUUCUCAACUAUGACACGCAAAUCGCCUGCUCCGUUGAAUGGACUUUAUCAUG [C43A G58C G81C C95U C96A A122U G126C G143C] | ≤ -4.2 |
| GGAUCUUCUCGAUCUAACAAAAAAGACAAAUCUGCCACAAAGAUUGAGAGCCUCUUCGGAUGCAGAGGCGGCAGCCUUCGGUGGCGCGAUAGCACCAACGUUCUCAACUAUGACACGCAAAACGCGUGCUCCGUUGAAUGGAGUUUAUCAUG [C43A A52C G94A] | ≤ -4.2 |
| GGAUCUUCUCGAUCUAACAAAAAAGACAAAUCUGCCACAAAGAUUGAGAGCAUCUUGGGAUGCAGAGGCGGCAGCCUGCGGUGGCGCGAUAGCGCAAACGUUCUCAACUAUGGCACGCAAAACGCGUGCUCCGUUGAAUGGAGUUUAUCAUG [C43A C57G U78G C96A A113G] | ≤ -4.2 |
| GGAUCUUCUCGAUCUAACAAAAAAGACAAAUCUGCCACAAAGGUUGAGAGCAUCAUCGGAGGCAGAGGCGGCAGCCUUCGGUGGCACGGUAGCGCCAACGUUCUCAACUAUGACACGCAAAUCGCGUGCUCCGUUGAAUGGAGUUUAUCAUG [C43G U55A U61G G86A A89G A122U] | ≤ -4.2 |
| GGAUCUUCUCGAUCUAACAAAAAAGACAAAUCUGCCACAAAGGUUGAGAGCAUCUUCGGAUGCAGAGGCGGCAGCCUUCGGUGACGCGAUAGCGACAACGUUCUCUACUAUGACACGGAAAACGCGUGCUCCGUUGAAUGGAUUUUAUCAUG [C43G G84A C95A A106U C118G G143U] | ≤ -4.2 |
| GGAUCUUCUCGAUCUAACAAAAAAGACAAAUCUGCCACAAAGAUUGAGAGCAUCUUGGGAUGCAGAGGCGGCAGCCUUCGGUGACGCGAUAGCGCCAACGUUCUCAACUAUGACACGCAAAACGCGUGCUCCGUUGAAUGGAGUUUAUCAUG [C43A C57G G84A] | ≤ -4.2 |
| GGAUCUUCUCGAUCUAACAAAAAAGACAAAUCUGCCACAAAGAUUGAGAGCAACUUAGGAUGCAGAGGCGGCAGCCUUCGGUGGCGCGAUAGCGUCAACGUUCUCAACUAUGACACGCAAAACGCGUGCUCCGUUGAAUGGAGUUUAUCAUG [C43A U53A C57A C95U] | ≤ -4.2 |
| GGAUCUUCUCGAUCUAACAAAAAAGACAAAUCUGCCACAAAGAUUGAUAGCAUCUUCGGGUGCAGAGGCGGCAGCCUUCGGUCGCGUGAUAGCGCCAACGUUCUCAACUAUGACACGCAAAACGCUUGCUCCGUUGACUGGAGUUUAUCAUG [C43A G48U A60G G83C C87U G126U A138C] | ≤ -4.2 |
| GGAUCUUCUCGAUCUAACAAAAAAGACAAAUCUGCCACAAAGAUUGAGAGCAUCUUCGGAUGUAGAGGCGGCAGCCUUCGGUGGCGCGAAAGCGCCAACGUUCUCAACUAUGACACGCAAAACGCGUGCUCCGUUGAAUGGAGUUUAUCAUG [C43A C63U U90A] | ≤ -4.2 |
